Experimental findings from publication PMC6011117, “Comparative Evaluation of Radioiodine and Technetium-Labeled DARPin 9_29 for Radionuclide Molecular Imaging of HER2 Expression in Malignant Tumors” (Contrast Media & Molecular Imaging, 2018) are described below.

The target in the test is T1, human epidermal growth factor receptor 2 (HER2) (human (endogenous in SKOV-3, BT474, …, UniProt P04626 23-1255)).
T1 construct: human epidermal growth factor receptor 2 (HER2), endogenous on the cell lines SKOV-3, BT474 and DU145; also called HER2 receptor; source: endogenous, on living SKOV-3, BT474 and DU145 cells
Briefly: radioligand binding; LigandTracer, real-time association and dissociation on living SKOV-3 cells at room temperature; radioconjugate at 1, 4 and 8 nM; TraceDrawer fit with a 1:2 binding model. The settings on record: one partner purified.

B1: [125I]I-DARPin 9_29 (designed binder)
chain: MDLGKKLLEAARAGQDDEVRILMANGADVNAHDFYGITPLHLAANFGHLEIVEVLLKHGADVNAFDYDNTPLHLAADAGHLEIVEVLLKYGADVNASDRDGHTPLHLAAREGHLEIVEVLLKNGADVNAQDKFGKTAFDISIDNGNEDLAEILQKLAAALE
modifications: iodine-125 label attached to tyrosine (direct radioiodination)
notes: designed ankyrin repeat protein 9_29 against HER2; also called radioiodinated DARPin 9_29; source: E. coli BL21(DE3), purified (HisTrap HP, MonoQ); directly radioiodinated with chloramine T, purified on NAP-5; not shown: His6, C-terminal, kept
In the case of B1, the “KD of the strongest interaction (1:2 binding model)” value is 0.362 ± 0.13 nM and the “KD of the weaker interaction (1:2 binding model)” value was 7.7 ± 2.8 nM.

B2: [99mTc]Tc(CO)3-DARPin 9_29 (designed binder)
chain: MDLGKKLLEAARAGQDDEVRILMANGADVNAHDFYGITPLHLAANFGHLEIVEVLLKHGADVNAFDYDNTPLHLAADAGHLEIVEVLLKYGADVNASDRDGHTPLHLAAREGHLEIVEVLLKNGADVNAQDKFGKTAFDISIDNGNEDLAEILQKLAAALE
modifications: [99mTc]Tc(CO)3 chelated by the C-terminal hexahistidine tag
notes: designed ankyrin repeat protein 9_29 against HER2; also called 99mTc(CO)3-DARPin 9_29; [99mTc]Tc-DARPin 9_29; source: E. coli BL21(DE3), purified (HisTrap HP, MonoQ); labelled with technetium-99m tricarbonyl, purified on NAP-5; not shown: His6, C-terminal, kept
Turning to B2, the “KD of the strongest interaction (1:2 binding model)” value came out at 0.439 ± 0.156 nM and the “KD of the weaker interaction (1:2 binding model)” value came to 9.1 ± 2.7 nM.
